The text below walks through data of patent US20260028422A1 (CONCEPT TO MEDICINE BIOTECH, published 2026).

Where a chain is given by its changes, count along the chain named.

B1: 247E5A8 chimeric monoclonal antibody (antibody, V domains shown)
VH: DVQLQESGPGLVKPSQSLSLTCSVTGYSITGGYYWTWIRQFPGNKLEWMGYISYDGDNNYNPSLKNRISITRDTSKNQFFLNLNSVTTEDTATYYCAREGGRLRTMDYWGQGTSVTVSS
VL: QIVLTQSPAIMSASPGEKVTITCRASSSVNYMHWFQQKPGTSPKLWIYTTSNLASGVPARFSGSGSGTSYSLTISRMEAEDAATYYCQQRSSYPFTFGSGTKLEIK
B2: 216G3D6 chimeric monoclonal antibody (antibody, V domains shown)
VH: QVTLKESGPGILQPSQTLSLTCSFSGFSLSTSGMGVGWIRQPSGKGLEWLAHIWWDDDKHCNPALKSRLTISKDTSSNQVFLKIASLDTADTATYYCTQMTMTREFAYWGQGTLVTVSA
VL: DIQMTQTISSLSASLGDRVTISCSAGQGISNYLNWYQQKPDGTVKLLIYYTSRLHSGVPSRFSGSGSGTDFSLTISNLEPEDIATYFCQQYSKFPYTFGGGTKLEIK
B3: 10F7D9 chimeric monoclonal antibody (antibody, V domains shown)
VH: QIQLVQSGPELKKPGETVKISCKASGYTFTNYGMNWVKQAPGKGLKWMGWINTYTGEPTYADDFKGRFAFSLETSASTAYLQINNLKNEDLATYFCATYGHYAWFAYWGQGTLVTVSA
VL: QIVLSQSPAILSASPGEKVTMTCRASSSVSYMHWYQQKSGSSPKPWIYATSNLASGVPARFSGSGSGTSYSLTISRVEAEDAATYFCQQWGTKPLTFGAGTKLELK
B4: 85H8D5 chimeric monoclonal antibody (antibody, V domains shown)
VH: QIQLVQSGPELKKPGETVKISCMASGYTFTTHGVTWVKQAPGQGLQRMGWINTYSGVPTYADDFKGRFVFSLETSANTAHLQINNLKNEDTATYFCARTNNYRYFDVWGTGTTVTVSS
VL: B3 VL with A13S, S39P, S71F, F86Y, G91N, K93D, L95P, A99G, L105I
B5: 254B4D9 chimeric monoclonal antibody (antibody, V domains shown)
VH: QIQLVQSGPELKKPGETVKISCKASGYTFTAYGMSWVKQAPGKGLQWMGWINTYSGVPTYTDDFKGRFAFSLEASASTAFLQINNLKNEDTSTYFCARRAAVVAKYWYFDVWGTGTTVTVSS
VL: DIQMTQSPSSLFASLGGKVIITCKSSQDINKRISWYQHKPGKGPRLLIHSTSSLQPGIPLRFSGSGSGRDYSFSISNLEPEDIATYFCLQYDNLLTFGAGTKLELK
B6: 276C2D1 chimeric monoclonal antibody (antibody, V domains shown)
VH: QVQLQQSGPELVKPGASVKLSCKASGYTFTSYDINWVKQRPGLGLEWIGWIYPRDGYTKYNEKFKGKATLAVDTSSSTAYMELHSLTSEDSAVYFCARGYYSNLYYFDYWGQGTTLTVSS
VL: EVVLTQSPPTMAASPGEKITITCSASSSISSNYLHWYQQKPGFSPKLLIYRTSNLASGVPARFSGSGSGTSYSLTIGTMEAEDVATYYCQQGRSIPLTFGAGTKLELK
B7: 280C6A3 chimeric monoclonal antibody (antibody, V domains shown)
VH: B6 VH with T28S, S31T, L43Q, Y57S, A71T, V72L, S77N, E82G, S102D
VL: B6 VL with V2I, P9T, I29V, S94I, I95V
B8: 300A5A3 chimeric monoclonal antibody (antibody, V domains shown)
VH: B6 VH with S31T, Y80S, S102D, Y109N, Q112P
VL: B6 VL with V2N, P9T, M11V, S28I, V84A, I95V
B9: 265F11B5 chimeric monoclonal antibody (antibody, V domains shown)
VH: B6 VH with K19R, S31T, K67R, A97T, S102D
VL: B6 VL with V2I, P9T, M11V, S28I, L34F, K40R, I95V
B10: 293C2B7 chimeric monoclonal antibody (antibody, V domains shown)
VH: B6 VH with L43Q, N61K, A71T, Y100F
VL: B6 VL with V2I, P9T, A13T, A61D

The first assay has as its target T1, human MerTK expressed on cells (human, UniProt Q12866 21-999).
T1 construct: whole, on cells; also called CHO-K1-hMerTK; CHO-K1-MerTK
T1 sequence (looked up): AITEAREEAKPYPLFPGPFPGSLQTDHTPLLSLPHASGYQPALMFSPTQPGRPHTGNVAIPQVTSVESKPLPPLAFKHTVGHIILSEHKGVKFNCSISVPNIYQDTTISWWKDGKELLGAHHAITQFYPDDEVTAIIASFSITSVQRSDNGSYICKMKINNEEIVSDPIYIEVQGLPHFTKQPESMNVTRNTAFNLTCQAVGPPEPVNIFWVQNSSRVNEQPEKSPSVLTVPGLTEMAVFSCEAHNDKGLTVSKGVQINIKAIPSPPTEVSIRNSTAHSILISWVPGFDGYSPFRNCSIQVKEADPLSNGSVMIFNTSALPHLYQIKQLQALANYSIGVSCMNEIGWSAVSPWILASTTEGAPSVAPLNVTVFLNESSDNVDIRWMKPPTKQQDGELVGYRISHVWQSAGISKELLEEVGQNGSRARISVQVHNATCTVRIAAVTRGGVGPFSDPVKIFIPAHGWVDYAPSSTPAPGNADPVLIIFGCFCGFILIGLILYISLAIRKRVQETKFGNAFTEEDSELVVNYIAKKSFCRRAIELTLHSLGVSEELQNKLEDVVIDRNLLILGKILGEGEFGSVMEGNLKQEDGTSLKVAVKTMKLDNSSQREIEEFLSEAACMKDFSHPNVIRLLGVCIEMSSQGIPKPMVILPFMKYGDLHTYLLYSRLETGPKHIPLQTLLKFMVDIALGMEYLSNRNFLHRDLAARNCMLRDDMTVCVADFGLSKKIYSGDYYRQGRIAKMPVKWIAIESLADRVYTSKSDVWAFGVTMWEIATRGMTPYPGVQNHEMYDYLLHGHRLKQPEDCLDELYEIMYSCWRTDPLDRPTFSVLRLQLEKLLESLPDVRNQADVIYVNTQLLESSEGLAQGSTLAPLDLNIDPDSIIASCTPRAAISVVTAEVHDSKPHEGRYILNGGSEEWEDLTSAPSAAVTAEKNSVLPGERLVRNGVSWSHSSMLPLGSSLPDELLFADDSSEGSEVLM
Kind of assay: FACS on CHO-K1 cells overexpressing human MerTK, MFI (PE). Here is the method: (§1) To evaluate the binding property to the antigen expressed on the cells, the chimeric monoclonal antibodies were analyzed for their binding to human MerTK overexpressed on CHO-K1 cells by FACS. Briefly, human MerTK overexpressing CHO-K1 (CHO-K1-MerTK) cells were firstly incubated with 5-fold serially diluted mAbs starting at 20 nM at 4° C. for 1 hour. After washing with FACS buffer, the PE conjugated anti-human IgG-Fc secondary antibody was added to each well and incubated at 4° C., for 30 mins. The mean fluorescence intensity (MFI) of PE were evaluated by QuantAnalyzer 16.
As to B1, the EC50 was determined as 0.12 nM and the Top was 10800 MFI (PE).

Take B2: the response was half-maximal at 0.17 nM (EC50) and the Top was 11000 MFI (PE).

As to B3, the EC50 amounted to 0.04 nM and the Top is 10800 MFI (PE).

Consider B4, for which the EC50 worked out at 0.054 nM and the Top was 10500 MFI (PE).

Another assay concerns the target T2, human MerTK-his protein (human, UniProt Q12866 21-505).
T2 construct: extracellular domain; also called hMerTK-His; human MerTK protein
T2 sequence (looked up): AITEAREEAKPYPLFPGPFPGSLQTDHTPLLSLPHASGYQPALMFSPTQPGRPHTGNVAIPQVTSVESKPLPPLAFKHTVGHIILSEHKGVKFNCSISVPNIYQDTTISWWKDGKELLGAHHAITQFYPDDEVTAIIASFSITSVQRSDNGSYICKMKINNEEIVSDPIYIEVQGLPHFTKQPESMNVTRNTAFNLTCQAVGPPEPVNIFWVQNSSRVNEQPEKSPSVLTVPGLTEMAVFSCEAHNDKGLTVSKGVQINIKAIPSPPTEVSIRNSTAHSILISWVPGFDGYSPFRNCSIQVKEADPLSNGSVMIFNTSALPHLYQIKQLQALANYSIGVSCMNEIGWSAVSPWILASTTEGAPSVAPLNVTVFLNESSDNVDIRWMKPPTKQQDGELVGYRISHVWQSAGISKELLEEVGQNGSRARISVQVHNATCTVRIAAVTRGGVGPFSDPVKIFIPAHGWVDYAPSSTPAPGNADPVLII
The assay is described as follows: SPR Biacore T200, antibody captured on Protein A chip. Here is the method:
The binding affinity of the MerTK chimeric antibodies to human MerTK-his protein was tested with Biacroe™ T200 using a capture method. Briefly, the antibodies were captured with a Pro-A chip. […] The antigen was allowed to dissociate for 420-800 s. Data analysis was carried out using Biacore™ T200 evaluation software.
In the case of B5, binding was characterised by a dissociation constant (Kd) of 11.9 nM, the koff was determined as 0.000782 s⁻¹ and the kon is 65500 M⁻¹ s⁻¹.

As to B1, the Kd turned out to be 4.59 nM, the koff is 0.000596 s⁻¹ and the kon came to 130000 M⁻¹ s⁻¹.

Take B2: the Kd amounted to 0.852 nM, the koff is 8.97e-05 s⁻¹ and the kon stood at 105000 M⁻¹ s⁻¹.

Take B3: the Kd was 4.29 nM, the koff stood at 0.00238 s⁻¹ and the kon came out at 554000 M⁻¹ s⁻¹.

B4 came in with a Kd of 11.4 nM, a koff of 0.00664 s⁻¹ and a kon of 582000 M⁻¹ s⁻¹.

For B6, binding was characterised by a dissociation constant (Kd) of 12.7 nM, the koff turned out to be 0.00223 s⁻¹ and the kon was found to be 175000 M⁻¹ s⁻¹.

B7 had a Kd of 3.08 nM, a koff of 0.000553 s⁻¹ and a kon of 179000 M⁻¹ s⁻¹.

Consider B8, for which the Kd turned out to be 1.36 nM, the koff came to 0.00029 s⁻¹ and the kon stood at 214000 M⁻¹ s⁻¹.

B9 gave a Kd of 1.22 nM, a koff of 0.000232 s⁻¹ and a kon of 191000 M⁻¹ s⁻¹.

The target in another assay is T3, Human MerTK-mouse Fc fusion protein (human, UniProt Q12866 21-499, limits assumed).
T3 construct: also called hMerTK; Human MerTK-mouse Fe fusion protein
T3 sequence (looked up): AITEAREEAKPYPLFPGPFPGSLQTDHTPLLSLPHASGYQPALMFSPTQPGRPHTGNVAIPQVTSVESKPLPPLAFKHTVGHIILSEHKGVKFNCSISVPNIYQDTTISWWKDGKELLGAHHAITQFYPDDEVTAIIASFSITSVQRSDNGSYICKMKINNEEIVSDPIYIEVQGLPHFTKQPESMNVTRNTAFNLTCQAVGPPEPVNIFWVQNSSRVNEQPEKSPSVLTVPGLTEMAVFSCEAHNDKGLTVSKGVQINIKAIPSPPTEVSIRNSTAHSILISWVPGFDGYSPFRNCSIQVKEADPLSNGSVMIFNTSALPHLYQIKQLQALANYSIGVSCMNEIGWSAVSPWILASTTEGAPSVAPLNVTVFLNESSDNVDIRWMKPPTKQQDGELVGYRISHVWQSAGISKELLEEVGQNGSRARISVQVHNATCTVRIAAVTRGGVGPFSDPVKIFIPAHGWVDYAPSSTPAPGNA
The assay is described as follows: FACS blocking: binding of human MerTK-mouse Fc to Jurkat cells overexpressing human Gas6, MFI (AF488). Here is the method: To evaluate the blocking effects of anti-hMerTK mAbs on hMerTK binding to its ligand hGas6, a receptor blocking assay was set-up. Briefly, Jurkat cells engineered to overexpress human Gas6 were added to the 96-well microplates at a density of 5×10⁴ cells per well. Human MerTK-mouse Fe fusion protein (50 μL/well, […]) and the MerTK chimeric antibodies with a 3-fold serial dilution starting from 120 nM at a volume of 50 μL were added to the 96-well plates and incubated at 4° C. for 30 mins. After washing with FACS buffer, the plates were incubated with diluted Alex Fluor 488 conjugated goat anti-mouse IgG antibody for 30 mins at 4′C. After washing, the plates were analyzed by QuantAnalyzer 16.
For B1, the IC50 was determined as 0.787 nM.

In the case of B2, the IC50 worked out at 0.802 nM.

B3 came in with an IC50 of 0.696 nM.

B4 displayed an IC50 of 0.802 nM.

The target in a further assay is T1, human MerTK expressed on cells. The assay is described as follows: FACS on CHO-K1 cells overexpressing human MerTK, MFI (PE). This is another data set of the same source. Here is the method:
as §1
On to B5, for which it took 0.19 nM to reach a half-maximal effect (EC50) and the Top was 5630 MFI (PE).

As for B6, the EC50 worked out at 0.04 nM and the Top is 7750 MFI (PE).

Take B7: the response was half-maximal at 0.044 nM (EC50) and the Top is 8310 MFI (PE).

For B8, the EC50 amounted to 0.076 nM and the Top was 8350 MFI (PE).

For the molecule B10, the EC50 was 0.064 nM and the Top is 7700 MFI (PE).

Take B9: the midpoint of the response, the EC50, lay at 0.061 nM and the Top was 9460 MFI (PE).
